# Target: peptide F (two-zinc-finger peptide, X = phenylalanine) (Artificial Sequence)
# Test: EMSA; 100 uM ZnCl2, 100 mM NaCl, 4 C
# Details: protein: synthetic; tags: none; chemically synthesized (Fmoc SPPS), C-terminal amide; label: 5'-32P on G chain
# Protocol: These bands obtained on the gel were quantified using Image Gauge software (FUJIFILM Corporation, ver. 4.01). The ratio of DNA bound to the peptide ([bound]/[bound]+[free]) was calculated from the band intensity at each peptide concentration; using this and the concentration of the peptide, the dissociation constant between the peptide and the DNA was calculated from the calculation equation (2) below.
# peptide F (two-zinc-finger peptide, X = phenylalanine) (Artificial Sequence), sequence (chain, as listed by the source): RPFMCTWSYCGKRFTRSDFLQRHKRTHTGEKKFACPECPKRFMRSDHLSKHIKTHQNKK
row,Binder,Kd
1,"methylated target DNA (dsDNA, 5mC at position 5 of G chain and position 6 of C chain) DNA 1: GGGGCGGGGCC DNA 2: GGCCCCGCCCC",5.58 µM
2,unmethylated target DNA (dsDNA) DNA 1: GGGGCGGGGCC DNA 2: GGCCCCGCCCC,2.1 µM

# From US20120238038, “PEPTIDE BINDING TO METHYLATED DNA” (published 2012)
